Experimental data: patent US20140087995A1 (published 2014)
Numbered stars: 1 amine (or outer) side, 2 acyl side, 3 side chain; on linkers, the order of the positions; unused ones are H or OH. Bridge positions count the residues as written; N and C are the ends. Side chains are listed from the residue outwards. Ends that are not written are not given here. * marks the point of attachment. C20 diacid = O=C(O)CCCCCCCCCCCCCCCCCCC(=O)*; γGlu = O=C(O)[C@H](CCC(=O)[*:2])N[*:1]

T1: human calcitonin receptor (human, UniProt P30988 25-474)
T1 construct: whole, on cells; Used as cell membranes; also called hCTR; hCT
T1 sequence (looked up): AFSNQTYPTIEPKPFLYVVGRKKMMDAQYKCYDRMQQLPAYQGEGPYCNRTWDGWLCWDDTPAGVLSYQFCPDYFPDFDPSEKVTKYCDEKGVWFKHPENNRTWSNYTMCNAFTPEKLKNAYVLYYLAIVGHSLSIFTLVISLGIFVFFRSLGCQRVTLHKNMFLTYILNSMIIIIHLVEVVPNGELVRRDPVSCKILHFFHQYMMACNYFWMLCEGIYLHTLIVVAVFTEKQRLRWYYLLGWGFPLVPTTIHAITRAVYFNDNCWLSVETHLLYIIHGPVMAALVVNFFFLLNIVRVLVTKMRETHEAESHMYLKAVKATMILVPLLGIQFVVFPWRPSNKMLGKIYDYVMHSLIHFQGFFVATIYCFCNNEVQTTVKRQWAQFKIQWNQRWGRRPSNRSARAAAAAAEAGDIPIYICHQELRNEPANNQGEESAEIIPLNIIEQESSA

B1: N^ε1-[(4S)-4-carboxy-4-(19-carboxynonadecanoylamino)butanoyl]-[Glu14,Arg17,Pro21,Pro27,His34,Glu35]-h-amylin (peptide)
peptide: K([γGlu-C20 diacid])CNTATCATQRLAEFLRHSSPNFGAIPSSTNVGHETY-NH2
modifications: disulfide 2-7; N-terminus assumed
SMILES: CC[C@H](C)[C@H](NC(=O)[C@H](C)NC(=O)CNC(=O)[C@H](Cc1ccccc1)NC(=O)[C@H](CC(N)=O)NC(=O)[C@@H]1CCCN1C(=O)[C@H](CO)NC(=O)[C@H](CO)NC(=O)[C@H](Cc1c[nH]cn1)NC(=O)[C@H](CCCNC(=N)N)NC(=O)[C@H](CC(C)C)NC(=O)[C@H](Cc1ccccc1)NC(=O)[C@H](CCC(=O)O)NC(=O)[C@H](C)NC(=O)[C@H](CC(C)C)NC(=O)[C@H](CCCNC(=N)N)NC(=O)[C@H](CCC(N)=O)NC(=O)[C@@H](NC(=O)[C@H](C)NC(=O)[C@@H]1CSSC[C@H](NC(=O)[C@@H](N)CCCCNC(=O)CC[C@H](NC(=O)CCCCCCCCCCCCCCCCCCC(=O)O)C(=O)O)C(=O)N[C@@H](CC(N)=O)C(=O)N[C@@H]([C@@H](C)O)C(=O)N[C@@H](C)C(=O)N[C@@H]([C@@H](C)O)C(=O)N1)[C@@H](C)O)C(=O)N1CCC[C@H]1C(=O)N[C@@H](CO)C(=O)N[C@@H](CO)C(=O)N[C@H](C(=O)N[C@@H](CC(N)=O)C(=O)N[C@H](C(=O)NCC(=O)N[C@@H](Cc1c[nH]cn1)C(=O)N[C@@H](CCC(=O)O)C(=O)N[C@H](C(=O)N[C@@H](Cc1ccc(O)cc1)C(N)=O)[C@@H](C)O)C(C)C)[C@@H](C)O
notes: also called compound 107
B2: N^ε1-[(4S)-4-carboxy-4-(19-carboxynonadecanoylamino)butanoyl]-[His14,Arg17,Pro21,Pro27,His34]-h-amylin (peptide)
peptide: K([γGlu-C20 diacid])CNTATCATQRLAHFLRHSSPNFGAIPSSTNVGHNTY-NH2
modifications: disulfide 2-7; N-terminus assumed
SMILES: CC[C@H](C)[C@H](NC(=O)[C@H](C)NC(=O)CNC(=O)[C@H](Cc1ccccc1)NC(=O)[C@H](CC(N)=O)NC(=O)[C@@H]1CCCN1C(=O)[C@H](CO)NC(=O)[C@H](CO)NC(=O)[C@H](Cc1c[nH]cn1)NC(=O)[C@H](CCCNC(=N)N)NC(=O)[C@H](CC(C)C)NC(=O)[C@H](Cc1ccccc1)NC(=O)[C@H](Cc1c[nH]cn1)NC(=O)[C@H](C)NC(=O)[C@H](CC(C)C)NC(=O)[C@H](CCCNC(=N)N)NC(=O)[C@H](CCC(N)=O)NC(=O)[C@@H](NC(=O)[C@H](C)NC(=O)[C@@H]1CSSC[C@H](NC(=O)[C@@H](N)CCCCNC(=O)CC[C@H](NC(=O)CCCCCCCCCCCCCCCCCCC(=O)O)C(=O)O)C(=O)N[C@@H](CC(N)=O)C(=O)N[C@@H]([C@@H](C)O)C(=O)N[C@@H](C)C(=O)N[C@@H]([C@@H](C)O)C(=O)N1)[C@@H](C)O)C(=O)N1CCC[C@H]1C(=O)N[C@@H](CO)C(=O)N[C@@H](CO)C(=O)N[C@H](C(=O)N[C@@H](CC(N)=O)C(=O)N[C@H](C(=O)NCC(=O)N[C@@H](Cc1c[nH]cn1)C(=O)N[C@@H](CC(N)=O)C(=O)N[C@H](C(=O)N[C@@H](Cc1ccc(O)cc1)C(N)=O)[C@@H](C)O)C(C)C)[C@@H](C)O
notes: also called compound 81
B3: N^ε1-[(4S)-4-carboxy-4-(19-carboxynonadecanoylamino)butanoyl]-[His14,Arg17,Pro21,Pro27]-h-amylin (peptide)
peptide: K([γGlu-C20 diacid])CNTATCATQRLAHFLRHSSPNFGAIPSSTNVGSNTY-NH2
modifications: disulfide 2-7; N-terminus assumed
SMILES: CC[C@H](C)[C@H](NC(=O)[C@H](C)NC(=O)CNC(=O)[C@H](Cc1ccccc1)NC(=O)[C@H](CC(N)=O)NC(=O)[C@@H]1CCCN1C(=O)[C@H](CO)NC(=O)[C@H](CO)NC(=O)[C@H](Cc1c[nH]cn1)NC(=O)[C@H](CCCNC(=N)N)NC(=O)[C@H](CC(C)C)NC(=O)[C@H](Cc1ccccc1)NC(=O)[C@H](Cc1c[nH]cn1)NC(=O)[C@H](C)NC(=O)[C@H](CC(C)C)NC(=O)[C@H](CCCNC(=N)N)NC(=O)[C@H](CCC(N)=O)NC(=O)[C@@H](NC(=O)[C@H](C)NC(=O)[C@@H]1CSSC[C@H](NC(=O)[C@@H](N)CCCCNC(=O)CC[C@H](NC(=O)CCCCCCCCCCCCCCCCCCC(=O)O)C(=O)O)C(=O)N[C@@H](CC(N)=O)C(=O)N[C@@H]([C@@H](C)O)C(=O)N[C@@H](C)C(=O)N[C@@H]([C@@H](C)O)C(=O)N1)[C@@H](C)O)C(=O)N1CCC[C@H]1C(=O)N[C@@H](CO)C(=O)N[C@@H](CO)C(=O)N[C@H](C(=O)N[C@@H](CC(N)=O)C(=O)N[C@H](C(=O)NCC(=O)N[C@@H](CO)C(=O)N[C@@H](CC(N)=O)C(=O)N[C@H](C(=O)N[C@@H](Cc1ccc(O)cc1)C(N)=O)[C@@H](C)O)C(C)C)[C@@H](C)O
notes: also called compound 70
B4: N^ε1-[(4S)-4-carboxy-4-(19-carboxynonadecanoylamino)butanoyl]-[His14,Arg17,Pro21,Pro27,His35]-h-amylin (peptide)
peptide: K([γGlu-C20 diacid])CNTATCATQRLAHFLRHSSPNFGAIPSSTNVGSHTY-NH2
modifications: disulfide 2-7; N-terminus assumed
SMILES: CC[C@H](C)[C@H](NC(=O)[C@H](C)NC(=O)CNC(=O)[C@H](Cc1ccccc1)NC(=O)[C@H](CC(N)=O)NC(=O)[C@@H]1CCCN1C(=O)[C@H](CO)NC(=O)[C@H](CO)NC(=O)[C@H](Cc1c[nH]cn1)NC(=O)[C@H](CCCNC(=N)N)NC(=O)[C@H](CC(C)C)NC(=O)[C@H](Cc1ccccc1)NC(=O)[C@H](Cc1c[nH]cn1)NC(=O)[C@H](C)NC(=O)[C@H](CC(C)C)NC(=O)[C@H](CCCNC(=N)N)NC(=O)[C@H](CCC(N)=O)NC(=O)[C@@H](NC(=O)[C@H](C)NC(=O)[C@@H]1CSSC[C@H](NC(=O)[C@@H](N)CCCCNC(=O)CC[C@H](NC(=O)CCCCCCCCCCCCCCCCCCC(=O)O)C(=O)O)C(=O)N[C@@H](CC(N)=O)C(=O)N[C@@H]([C@@H](C)O)C(=O)N[C@@H](C)C(=O)N[C@@H]([C@@H](C)O)C(=O)N1)[C@@H](C)O)C(=O)N1CCC[C@H]1C(=O)N[C@@H](CO)C(=O)N[C@@H](CO)C(=O)N[C@H](C(=O)N[C@@H](CC(N)=O)C(=O)N[C@H](C(=O)NCC(=O)N[C@@H](CO)C(=O)N[C@@H](Cc1c[nH]cn1)C(=O)N[C@H](C(=O)N[C@@H](Cc1ccc(O)cc1)C(N)=O)[C@@H](C)O)C(C)C)[C@@H](C)O
notes: also called compound 66
B5: N^ε1-[(4S)-4-carboxy-4-(19-carboxynonadecanoylamino)butanoyl]-[Glu14,Arg17,Pro21,Pro27,Pro34,Glu35]-h-amylin (peptide)
peptide: K([γGlu-C20 diacid])CNTATCATQRLAEFLRHSSPNFGAIPSSTNVGPETY-NH2
modifications: disulfide 2-7; N-terminus assumed
SMILES: CC[C@H](C)[C@H](NC(=O)[C@H](C)NC(=O)CNC(=O)[C@H](Cc1ccccc1)NC(=O)[C@H](CC(N)=O)NC(=O)[C@@H]1CCCN1C(=O)[C@H](CO)NC(=O)[C@H](CO)NC(=O)[C@H](Cc1c[nH]cn1)NC(=O)[C@H](CCCNC(=N)N)NC(=O)[C@H](CC(C)C)NC(=O)[C@H](Cc1ccccc1)NC(=O)[C@H](CCC(=O)O)NC(=O)[C@H](C)NC(=O)[C@H](CC(C)C)NC(=O)[C@H](CCCNC(=N)N)NC(=O)[C@H](CCC(N)=O)NC(=O)[C@@H](NC(=O)[C@H](C)NC(=O)[C@@H]1CSSC[C@H](NC(=O)[C@@H](N)CCCCNC(=O)CC[C@H](NC(=O)CCCCCCCCCCCCCCCCCCC(=O)O)C(=O)O)C(=O)N[C@@H](CC(N)=O)C(=O)N[C@@H]([C@@H](C)O)C(=O)N[C@@H](C)C(=O)N[C@@H]([C@@H](C)O)C(=O)N1)[C@@H](C)O)C(=O)N1CCC[C@H]1C(=O)N[C@@H](CO)C(=O)N[C@@H](CO)C(=O)N[C@H](C(=O)N[C@@H](CC(N)=O)C(=O)N[C@H](C(=O)NCC(=O)N1CCC[C@H]1C(=O)N[C@@H](CCC(=O)O)C(=O)N[C@H](C(=O)N[C@@H](Cc1ccc(O)cc1)C(N)=O)[C@@H](C)O)C(C)C)[C@@H](C)O

Target: T1, human calcitonin receptor
Test: ratio of hCTR IC50 to hAmylin-R IC50 (reference: human amylin receptor)
Method in brief: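 Competition binding by SPA uses membrane preparations (35 ng/μL final) in pH 7.4 Hepes buffer with 1 mM CaCl2 and 5 mM MgCl₂. Incubation lasts 120 min at 25° C, and IC₅₀ comes from one-site fitting.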

Ratio hCT/hAmylin binding | Binder
11.1 | B1
87.2 | B2
60.8 | B3
45.5 | B4
13.3 | B5

Target: T1, human calcitonin receptor
Test: SPA competition on BHK cell membranes, 125I-calcitonin as radioligand (Assay VII)
Method in brief: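 BHK hCTR membranes 35 ng/μL + SPA beads 0.05 mg/well; buffer 50 mM Hepes pH 7.4, 1 mM CaCl2, 5 mM MgCl₂, 0.1% OA, 0.02% Tween20. 120 min, 25° C., shaking. Scintillation count; IC50 by one-site binding competition.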

IC50 [nM] | Binder
4.28 | B1
23.6 | B2
10.3 | B3
18 | B4
1.86 | B5
